Among the data in paper PMC2849977 (2009) are Kd values, retold here.

The assay addresses histone H3 peptide H3K4me3-K9me2 1-24 (Homo sapiens, UniProt P68431, H3K4me3+H3K9me2). Description: ITC. (Isothermal titration calorimetry measures the heat released or taken up as one component is titrated into another.)

B1: KIAA1718 1-488 (protein)
chain: MAGAAAAVAAGAAAGAAAAAVSVAAPGRASAPPPPPPVYCVCRQPYDVNRFMIECDICKDWFHGSCVGVEEHHAVDIDLYHCPNCAVLHGSSLMKKRRNWHRHDYTEIDDGSKPVQAGTRTFIKELRSRVFPSADEIIIKMHGSQLTQRYLEKHGFDVPIMVPKLDDLGLRLPSPTFSVMDVERYVGGDKVIDVIDVARQADSKMTLHNYVKYFMNPNRPKVLNVISLEFSDTKMSELVEVPDIAKKLSWVENYWPDDSVFPKPFVQKYCLMGVQDSYTDFHIDFGGTSVWYHVLWGEKIFYLIKPTDENLARYESWSSSVTQSEVFFGDKVDKCYKCVVKQGHTLFVPTGWIHAVLTSQDCMAFGGNFLHNLNIGMQLRCYEMEKRLKTPDLFKFPFFEAICWFVAKNLLETLKELREDGFQPQTYLVQGVKALHTALKLWMKKELVSEHAFEIPDNVRPGHLIKELSKVIRAIEEENGKPVKSQGI
As to B1, the Kd is ~300 nM.

B2: PHF8 1-447 (protein)
chain: MNRSRAIVQRGRVLPPPAPLDTTNLAGRRTLQGRAKMASVPVYCLCRLPYDVTRFMIECDMCQDWFHGSCVGVEEEKAADIDLYHCPNCEVLHGPSIMKKRRGSSKGHDTHKGKPVKTGSPTFVRELRSRTFDSSDEVILKPTGNQLTVEFLEENSFSVPILVLKKDGLGMTLPSPSFTVRDVEHYVGSDKEIDVIDVTRQADCKMKLGDFVKYYYSGKREKVLNVISLEFSDTRLSNLVETPKIVRKLSWVENLWPEECVFERPNVQKYCLMSVRDSYTDFHIDFGGTSVWYHVLKGEKIFYLIRPTNANLTLFECWSSSSNQNEMFFGDQVDKCYKCSVKQGQTLFIPTGWIHAVLTPVDCLAFGGNFLHSLNIEMQLKAYEIEKRLSTADLFRFPNFETICWYVGKHILDIFRGLRENRRHPASYLVHGGKALNLAFRAWTRKE
As to B2, the dissociation constant Kd was ~1000 nM.

For orientation: Kd means the free concentration of one partner at which half of the binding sites on the other are occupied at equilibrium, for simple one-to-one binding. Read a low Kd as a tighter complex.
